Results reported in patent US20100047805.

Experiments:
Assay in all cases: cell_activity
[1] = system: 8196zDR D467A D483R,D467A (FokI) (synthetic construct); details: TI with 8267RD; NHEJ 0.0
[2] = system: 8196zKK (ZFN-R-KK) E490K,I538K (FokI) (synthetic construct); details: NHEJ with 8267EL; TI 29.4%; K562
[3] = system: 8196zDR D450N D483R,D450N (FokI) (synthetic construct); details: TI with 8267RD; NHEJ 0.0
[4] = system: 8196zKK D467A E490K,I538K,D467A (FokI) (synthetic construct); details: TI with 8267EL; NHEJ 0.0
[5] = system: 8267RD R487D (FokI) (synthetic construct); details: NHEJ with 8196zDR; TI 28.4%
[6] = system: 8196zDR D483R (FokI) (synthetic construct); details: NHEJ with 8267RD; TI 28.4%

CCR5 endogenous locus (K562) gave an activity [1] of 0.7%, an activity [2] of 54.3% and an activity [3] of 1.2%. The activity [4] was 1.1%, the activity [5] was 36.7% and the activity [6] was 36.7%.
